The record followed here is patent US20230357429A1 (JANUX THERAPEUTICS, published 2023).

Assay [1] concerns the target T1, αCD3 scFv.
T1 construct: also called anti-CD3 scFv; CD3 scFv (SP34.185) wt
The assay can be described thus: competition ELISA; peptide titrated and pre-incubated with a constant concentration of αCD3 scFv; blocked: binding of the scFv to plate-bound biotinylated CD3. For orientation: ELISA stands for enzyme-linked immunosorbent assay.

Assay [2] deals with T2, TCE-39 (anti-CD3 scFv P41S, A49G, N87S, L150F, T151S, G163R, P175A, K181T, T200V, A202D, L208I, G211N, L217I, …).
T2 construct: scFv on the Fab heavy chain
The assay can be described thus: competition ELISA, TCE on captured CD3.

In assay [3] the target is T3, TCE-37 (anti-CD3 scFv F104A; anti-TROP2 F108A).
T3 construct: scFv on the Fab heavy chain
The assay is described as follows: competition ELISA, TCE on captured CD3.

In assay [4] the target is T4, TCE-7 (anti-CD3 scFv wt; anti-TROP2 F108A).
T4 construct: scFv on the Fab heavy chain
The assay is described as follows: competition ELISA, TCE on captured CD3.

Assay [5] deals with T5, Human TROP2 ECD (31-274 AA), biotinylated (human, UniProt P09758 31-274, biotinylated (site not stated)).
T5 construct: also called tumor-associated calcium signal transducer 2; Human TROP2-biotin
T5 sequence: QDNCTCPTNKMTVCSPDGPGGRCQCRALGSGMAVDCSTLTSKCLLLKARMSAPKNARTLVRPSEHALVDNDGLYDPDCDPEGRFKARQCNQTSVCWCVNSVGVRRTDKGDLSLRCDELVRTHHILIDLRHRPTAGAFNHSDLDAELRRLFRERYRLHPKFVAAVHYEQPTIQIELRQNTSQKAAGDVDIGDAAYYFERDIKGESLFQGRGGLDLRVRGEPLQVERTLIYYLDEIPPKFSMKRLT
The assay is described as follows: ELISA on immobilized TROP2.

Assay [6] has as its target T6, Cyno TROP2 Full length (cynomolgus monkey, UniProt P09758 31-323 (human entry)).
T6 chain: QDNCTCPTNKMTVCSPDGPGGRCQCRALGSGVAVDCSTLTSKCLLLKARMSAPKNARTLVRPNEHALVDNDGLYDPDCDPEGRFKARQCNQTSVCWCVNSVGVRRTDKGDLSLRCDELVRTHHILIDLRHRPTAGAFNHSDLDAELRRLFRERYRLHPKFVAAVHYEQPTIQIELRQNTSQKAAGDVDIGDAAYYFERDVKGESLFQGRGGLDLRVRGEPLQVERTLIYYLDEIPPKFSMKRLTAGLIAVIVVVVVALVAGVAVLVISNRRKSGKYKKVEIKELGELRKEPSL
The assay can be described thus: cell-based or functional assay.

Assay [7] has as its target T7, Human TROP2 Full length (human, UniProt P09758 31-323).
T7 sequence: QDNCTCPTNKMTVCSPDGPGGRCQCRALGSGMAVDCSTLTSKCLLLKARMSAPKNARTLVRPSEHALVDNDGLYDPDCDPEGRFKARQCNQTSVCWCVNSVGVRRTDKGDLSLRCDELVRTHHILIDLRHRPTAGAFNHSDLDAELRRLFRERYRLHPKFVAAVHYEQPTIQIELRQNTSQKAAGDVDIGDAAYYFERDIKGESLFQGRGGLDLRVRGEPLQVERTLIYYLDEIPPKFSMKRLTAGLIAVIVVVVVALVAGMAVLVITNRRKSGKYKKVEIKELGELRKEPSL
The assay can be described thus: cell-based or functional assay.

For assay [8], the target named is T5, Human TROP2 ECD (31-274 AA), …. The assay is described as follows: ELISA on immobilized TROP2. This is another data set of the same source.
For assay [9], the target named is T8, Human TROP2 ECD (31-274 AA) (human, UniProt P09758 31-274, biotinylated).
T8 construct: also called biotinylated TROP2; TROP2-biotin
T8 sequence: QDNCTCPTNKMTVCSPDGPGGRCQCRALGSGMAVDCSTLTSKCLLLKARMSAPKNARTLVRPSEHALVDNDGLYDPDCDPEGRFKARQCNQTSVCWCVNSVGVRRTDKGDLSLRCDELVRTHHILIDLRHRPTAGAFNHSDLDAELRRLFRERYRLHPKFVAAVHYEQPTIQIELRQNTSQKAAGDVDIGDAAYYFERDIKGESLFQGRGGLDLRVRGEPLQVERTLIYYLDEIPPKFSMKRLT
The assay is described as follows: ELISA; biotinylated TROP2 on neutravidin plates, PC titrated, HRP secondary.

Assay [10] concerns the target T5, Human TROP2 ECD (31-274 AA), …. The assay can be described thus: ELISA on immobilized TROP2. The source holds these as a separate data set.
For assay [11] the target is unchanged. The assay can be described thus: ELISA on immobilized TROP2; binder pre-treated with MTSP1.
The target of assay [12] is T9, CD3 (biotinylated CD3 antigen) (human, UniProt P07766 23-126, limits assumed, biotinylated (site not stated)).
T9 construct: also called CD3ε; human CD3
The assay can be described thus: ELISA: biotinylated CD3 captured on neutravidin plates, TCE titrated, HRP secondary antibody.

Assay [13] deals with T10, Peptide-66 (cysteine pairing not given here; also: biotinylated, site not given here).
T10 construct: mask peptide for the CD3 scFv
T10 peptide: GSQCLGPEWEVCPY
The assay is described as follows: ELISA, TCE on captured biotin-peptide.

For assay [14], the target named is T11, Peptide-73 (cysteine pairing not given here; also: biotinylated, site not given here).
T11 construct: mask peptide for the CD3 scFv
T11 peptide: VYCGPEFDESVGCA
The assay is described as follows: ELISA, TCE on captured biotin-peptide.

In assay [15] the target is T12, Peptide-74 (cysteine pairing not given here; also: biotinylated, site not given here).
T12 construct: mask peptide for the CD3 scFv
T12 peptide: ASQCLGPEWEVCPY
The assay can be described thus: ELISA, TCE on captured biotin-peptide.

The target in assay [16] is T13, Peptide-75 (cysteine pairing not given here; also: biotinylated, site not given here).
T13 construct: mask peptide for the CD3 scFv
T13 peptide: GSACLGPEWEVCPY
The assay can be described thus: ELISA, TCE on captured biotin-peptide.

The target in assay [17] is T14, Peptide-70 (cysteine pairing not given here; also: biotinylated, site not given here).
T14 construct: mask peptide for the CD3 scFv
T14 peptide: YLCGPDGDETLACY
The assay is described as follows: ELISA, TCE on captured biotin-peptide.

The target in assay [18] is T15, Peptide-68 (cysteine pairing not given here; also: biotinylated, site not given here).
T15 construct: mask peptide for the CD3 scFv
T15 peptide: DWCWYSPDNDGLCD
The assay can be described thus: ELISA, TCE on captured biotin-peptide.

In assay [19] the target is T16, Peptide-67 (cysteine pairing not given here; also: biotinylated, site not given here).
T16 construct: mask peptide for the CD3 scFv
T16 peptide: VYCGPEFDESVGCM
The assay is described as follows: ELISA, TCE on captured biotin-peptide.

In assay [20] the target is T17, Peptide-71 (cysteine pairing not given here; also: biotinylated, site not given here).
T17 construct: mask peptide for the CD3 scFv
T17 peptide: VDCGPDGDESILCY
The assay can be described thus: ELISA, TCE on captured biotin-peptide.

Where no end group is shown, it is not given here.

In general, IC50 refers to the concentration that gives 50% inhibition. In general, EC50 refers to the midpoint of the concentration-response curve.

T9 sequence (P07766 23-126 limits assumed): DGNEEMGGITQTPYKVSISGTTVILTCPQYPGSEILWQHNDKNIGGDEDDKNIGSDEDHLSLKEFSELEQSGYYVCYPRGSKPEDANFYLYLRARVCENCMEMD

B1: Peptide-70 (peptide)
peptide: YLCGPDGDETLACY
notes: also called CD3 scFv peptide mask
As for B1, in assay [1], the IC50 amounted to 10 nM.

B2: Peptide-76 (peptide)
peptide: YLCGPDADETLACY
modifications: cysteine pairing not given here; also: biotinylated, site not given here
notes: mask peptide for the CD3 scFv
Take B2: the half-inhibitory concentration (IC50) in assay [2] amounted to 2790 nM; in [3] it was 950 nM; in assay [4], 17500 nM.

B3: PC-18 (bispecific antibody)
light: GGVDFCALYHWPICYQGGGGSGGLSGRSDAGSPLGLAGSGGSDIQLTQSPSSLSASVGDRVSITCKASQDVSIAVAWYQQKPGKAPKLLIYSASYRYTGVPDRFSGSGSGTDFTLTISSLQPEDFAVYYCQQHYITPLTFGAGTKVEIKRTVAAPSVFIFPPSDEQLKSGTASVVCLLNNFYPREAKVQWKVDNALQSGNSQESVTEQDSKDSTYSLSSTLTLSKADYEKHKVYACEVTHQGLSSPVTKSFNRGEC
heavy: not shown
notes: Masked polypeptide complex: anti-TROP2 Fab F108A, anti-CD3 scFv wt; cleavable linkers
In the case of B3, the concentration for a half-maximal effect (EC50) was found to be 206 nM in assay [5], 301 nM in assay [8] and 957 nM in [9]. Besides, the “CyTROP2 HEK293 EC50 (pM)” value in assay [6] is 8250 pM. In addition, the “H292 Cytotoxicity EC50 (pM)” value in [7] is over 100000 pM. The “HCT116 Cytotoxicity EC50 (pM)” value in [7] was over 100000 pM.

B4: TCE-7 (anti-CD3 wt, anti-TROP2 F108A) (bispecific antibody)
light: DIQLTQSPSSLSASVGDRVSITCKASQDVSIAVAWYQQKPGKAPKLLIYSASYRYTGVPDRFSGSGSGTDFTLTISSLQPEDFAVYYCQQHYITPLTFGAGTKVEIKRTVAAPSVFIFPPSDEQLKSGTASVVCLLNNFYPREAKVQWKVDNALQSGNSQESVTEQDSKDSTYSLSSTLTLSKADYEKHKVYACEVTHQGLSSPVTKSFNRGEC
heavy: not shown
notes: scFv on the Fab heavy chain; the entry already carries the mutation
Consider B4, for which the EC50 in assay [5] came to 0.18 nM; in assay [10] it was 1.41 nM; in assay [8], 0.36 nM.

B5: PC-2 + MTSP1 (bispecific antibody)
light: DIQLTQSPSSLSASVGDRVSITCKASQDVSIAVAWYQQKPGKAPKLLIYSASYRYTGVPDRFSGSGSGTDFTLTISSLQPEDFAVYYCQQHYITPLTFGAGTKVEIKRTVAAPSVFIFPPSDEQLKSGTASVVCLLNNFYPREAKVQWKVDNALQSGNSQESVTEQDSKDSTYSLSSTLTLSKADYEKHKVYACEVTHQGLSSPVTKSFNRGEC
chain: not shown
modifications: Protease-treated product: both masks and the anti-albumin domain are cut off in the cleavable linkers.
notes: not shown: The few linker residues left at the N-terminus of each chain after the MTSP1 cut
For B5, the EC50 in assay [11] was 0.45 nM.

B6: PC-3 + MTSP1 (bispecific antibody)
light: DIQLTQSPSSLSASVGDRVSITCKASQDVSIAVAWYQQKPGKAPKLLIYSASYRYTGVPDRFSGSGSGTDFTLTISSLQPEDFAVYYCQQHYITPLTFGAGTKVEIKRTVAAPSVFIFPPSDEQLKSGTASVVCLLNNFYPREAKVQWKVDNALQSGNSQESVTEQDSKDSTYSLSSTLTLSKADYEKHKVYACEVTHQGLSSPVTKSFNRGEC
chain: not shown
modifications: Protease-treated product: both masks and the anti-albumin domain are cut off in the cleavable linkers.
notes: as for B5
Take B6: in assay [11], the 50% effective concentration (EC50) was 0.42 nM.

B7: TCE-28 (anti-CD3 scFv S235A; anti-TROP2 wt) (bispecific antibody)
light: DIQLTQSPSSLSASVGDRVSITCKASQDVSIAVAWYQQKPGKAPKLLIYSASYRYTGVPDRFSGSGSGTDFTLTISSLQPEDFAVYYCQQHYITPLTFGAGTKVEIKRTVAAPSVFIFPPSDEQLKSGTASVVCLLNNFYPREAKVQWKVDNALQSGNSQESVTEQDSKDSTYSLSSTLTLSKADYEKHKVYACEVTHQGLSSPVTKSFNRGEC
heavy: not shown
notes: scFv on the Fab heavy chain
B7 registered an EC50 in assay [12] of 0.158 nM.

B8: TCE-26 (anti-CD3 scFv W233A; anti-TROP2 HC wt) (bispecific antibody)
light: DIQLTQSPSSLSASVGDRVSITCKASQDVSIAVAWYQQKPGKAPKLLIYSASYRYTGVPDRFSGSGSGTDFTLTISSLQPEDFAVYYCQQHYITPLTFGAGTKVEIKRTVAAPSVFIFPPSDEQLKSGTASVVCLLNNFYPREAKVQWKVDNALQSGNSQESVTEQDSKDSTYSLSSTLTLSKADYEKHKVYACEVTHQGLSSPVTKSFNRGEC
heavy: not shown
notes: scFv on the Fab heavy chain; also called TCE-26 (W233A)
Regarding B8, the EC50 in [12] stood at 1.81 nM; in assay [13], 6.28 nM; in assay [14] it was 6.63 nM; in assay [15], 5.47 nM; in assay [16], 6.26 nM; in assay [17], 0.95 nM. The EC50 in [18] turned out to be 2.68 nM; in assay [19], 6.46 nM; in assay [20] it was 4.69 nM.

B9: Peptide-67 (peptide)
peptide: VYCGPEFDESVGCM
notes: as for B1
Take B9: in assay [1], the concentration for half-maximal inhibition (IC50) was found to be 50 nM. In other words, the double-digit nanomolar range.
